Columns and labels:
[1] = test system: TSP1-4 substrate, (HiLyteFluor-488)-EENKELANELRRPPL-K(QXL520)-NH2
[2] = test system: COMP2 candidate peptide, (Donor) SPGFRC(Acm)EAC(Acm)PPGYS (K-Quencher)
[3] = test system: COMP1 candidate peptide, (Donor) GMQQSVRTGLPS (K-Quencher)
[4] = test system: TSP1-1 substrate, (HiLyteFluor-488)-DELSSMVLELRGLRT-K(QXL520)-NH2
[5] = test system: TSP1-5 substrate, (HiLyteFluor-488)-SSMVLELRGLRT-K(QXL520)-NH2
[6] = test system: TSP1-3 substrate, (HiLyteFluor-488)-KVTEENKELANELRR-K(QXL520)-NH2
[7] = test system: TSP1-2 substrate, (HiLyteFluor-488)-SSMVLELRGLRTIVT-K(QXL520)-NH2
[8] = test system: (HiLyteFluor-488)-DELSSMVLELRGLRT-K(QXL520)-E-NH2

Sequence of rPro-hCD-FM2 (Rat 1-217/Human 237-537 FM2 (Q216K))-TEV-2Strep-6His (chain, as listed by the source Q216K): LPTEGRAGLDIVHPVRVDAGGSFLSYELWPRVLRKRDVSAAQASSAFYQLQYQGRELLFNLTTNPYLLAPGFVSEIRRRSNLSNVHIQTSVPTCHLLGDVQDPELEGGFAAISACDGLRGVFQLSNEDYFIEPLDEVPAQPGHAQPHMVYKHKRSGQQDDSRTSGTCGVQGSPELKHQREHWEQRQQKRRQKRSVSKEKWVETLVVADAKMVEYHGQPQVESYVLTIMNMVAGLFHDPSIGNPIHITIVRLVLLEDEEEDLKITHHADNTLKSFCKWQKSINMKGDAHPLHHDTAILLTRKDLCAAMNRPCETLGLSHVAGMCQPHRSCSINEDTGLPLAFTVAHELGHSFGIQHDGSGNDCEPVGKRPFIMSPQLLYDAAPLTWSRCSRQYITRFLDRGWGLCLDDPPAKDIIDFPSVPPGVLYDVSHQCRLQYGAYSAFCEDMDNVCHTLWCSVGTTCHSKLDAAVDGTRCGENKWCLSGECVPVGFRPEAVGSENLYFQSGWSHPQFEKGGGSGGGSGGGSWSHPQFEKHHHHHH
Sequence of rPro-hCD (Rat 1-217/Human 237-537)-TEV-2Strep-6His (chain, as listed by the source): as the sequence (chain, as listed by the source Q216K) above, with K192Q counted along it

Row | Substance | FRET peptide cleavage (Relative Fluorescence Units over time) [1] | kcat [1] [min⁻¹] | FRET peptide cleavage (Relative Fluorescence Units over time) [2] | kcat [2] [min⁻¹] | FRET peptide cleavage (Relative Fluorescence Units over time) [3] | kcat [3] [min⁻¹] | FRET peptide cleavage (Relative Fluorescence Units over time) [4] | kcat [4] [min⁻¹] | FRET peptide cleavage (Relative Fluorescence Units over time) [5] | kcat [5] [min⁻¹] | FRET peptide cleavage (Relative Fluorescence Units over time) [6] | kcat [6] [min⁻¹] | FRET peptide cleavage (Relative Fluorescence Units over time) [7] | kcat [7] [min⁻¹] | FRET peptide cleavage (increase of fluorescence intensity) [8]
1 | rPro-hCD (Rat 1-217/Human 237-537)-TEV-2Strep-6His | No significant activity was detected at the defined ADAMTS1 cleavage site E311⬇L312 from TSP1 S3 ... or TSP1 S4 | 0.002 | No activity was observed with COMP candidate peptides COMP1 ... or COMP2 | 0.00038 | No activity was observed with COMP candidate peptides COMP1 | 0.00073 | demonstrated the greatest specificity for the TSP1 S1 | 0.021 | Activity was observed for the S5 substrate with ADAMTS-7 human catalytic domain constructs compared to buffer alone, however the removal of the amino DEL sequence greatly reduced the signal for activity compared to the 51 substrate | 0.002 | No significant activity was detected at the defined ADAMTS1 cleavage site E311⬇L312 from TSP1 S3 | 0.0012 | also cleaved the overlapping TSP1 S2 substrate | 0.0032 | It was surprisingly found that the same substrate could be used for the paralogs ADAMTS-7 and ADAMTS-12
2 | rPro-hCD-FM2 (Rat 1-217/Human 237-537 FM2 (Q216K))-TEV-2Strep-6His | No significant activity was detected at the defined ADAMTS1 cleavage site E311⬇L312 from TSP1 S3 ... or TSP1 S4 | 0.0021 | No activity was observed with COMP candidate peptides COMP1 ... or COMP2 | 0.00039 | No activity was observed with COMP candidate peptides COMP1 | 0.00076 | demonstrated the greatest specificity for the TSP1 S1 | 0.024 | Activity was observed for the S5 substrate with ADAMTS-7 human catalytic domain constructs compared to buffer alone, however the removal of the amino DEL sequence greatly reduced the signal for activity compared to the 51 substrate | 0.0021 | No significant activity was detected at the defined ADAMTS1 cleavage site E311⬇L312 from TSP1 S3 | 0.0012 | also cleaved the overlapping TSP1 S2 substrate | 0.0029 | It was surprisingly found that the same substrate could be used for the paralogs ADAMTS-7 and ADAMTS-12

Reference: patent publication US20220412975
